How the values were obtained:
Format in all cases: biochemical, Pantoea dispersa SB1043
[1] = biological target: Pantoea dispersa AlbD (albicidin detoxifying enzyme, carboxyl esterase), wild type (Pantoea dispersa, UniProt O07822); assay: Enzyme kinetics of wild type AlbD with p-nitrophenyl compounds; settings: PBS pH 7.4, room temperature, O.D405, means of triplicate
Method: (§1) Purification of AlbD and variants. The coding sequence of albD was amplified by PCR using forward primer 5′-[…]-3′ and reverse primer 5′-[…]-3′. The PCR product was digested by BamHI and EcoRI and fused in-frame to GST (glutathione S-transferase) gene in expression vector pGEX-2T (Pharmacia). E. coli DH5α containing the GST-AlbD fusion construct was grown in LB medium at 30° C. overnight. The cells were harvested by centrifuging at 5000 rpm for 10 minutes. The cells were resuspended in PBS buffer (pH7.4) and lysed by using a French Pressure Cell Press (Aim-Aminco) at 1100 psi. The lysate was centrifuged at 18000 rpm for 60 min at 4° C. The supernatant was loaded in the pre-equilibrated Gluthione Sepharose 4B affinity column and washed with PBS buffer (pH 7.4) to remove non-specifically bound proteins. […] The enzyme purity was determined using SDS-PAGE and stored at −80° C. in PBS buffer containing 50% glycerol. The AlbD variants were purified using the same method.
(§2) Kinetics analysis of wild type AlbD and its variants. Enzyme kinetics of AlbD and variants were determined using p-nitrophenyl compounds, the commonly used esterase substrates. The reaction was conducted in 165 μl PBS buffer (pH 7.4) containing enzyme (0.3-0.6 μM), and 3 mM p-nitrophenayl compounds at room temperature for 5 minutes and O.D405 was determined. For kinetics assay, we used the Kinetics program in the Athous spectrometer (Australia) to obtain slopes with different enzyme concentrations, and then calculated Km/Vmax and Kcat/Km by Lineweaver-Burk equation.

[2] = biological target: Pantoea dispersa AlbD variant AlbD-M1, Ser40Gly (A118G), FIG. 3 (Pantoea dispersa, UniProt O07822, S40G); assay: Enzyme kinetics of AlbD-M1 with p-nitrophenyl compounds; settings: PBS pH 7.4, room temperature, O.D405, means of triplicate
Method: as §1, §2

[3] = biological target: Pantoea dispersa AlbD variant AlbD-M2, Glu25Arg (A74G)/Lys27Glu (A79G)/Ser40Gly (A118G) (Pantoea dispersa, UniProt O07822, K27E/Q25R/S40G); assay: Enzyme kinetics of AlbD-M2 with p-nitrophenyl compounds; settings: PBS pH 7.4, room temperature, O.D405, means of triplicate
Method: as §1, §2

[4] = system: CC(=O)Oc1ccc([N+](=O)[O-])cc1; assay: Enzyme kinetics of wild type AlbD with p-nitrophenyl compounds; settings: other: wild type AlbD, PBS pH 7.4, room temperature, O.D405, Lineweaver-Burk, means of triplicate
Method: as §1, §2

[5] = system: CCCC(=O)Oc1ccc([N+](=O)[O-])cc1; assay: as above; settings: other: wild type AlbD, PBS pH 7.4, room temperature, O.D405, Lineweaver-Burk, means of triplicate
Method: as §1, §2

[6] = system: CCCCC(=O)Oc1ccc([N+](=O)[O-])cc1; assay: as above; settings: other: wild type AlbD, PBS pH 7.4, room temperature, O.D405, Lineweaver-Burk, means of triplicate
Method: as §1, §2

[7] = system: CCCCCC(=O)Oc1ccc([N+](=O)[O-])cc1; assay: as above; settings: other: wild type AlbD, PBS pH 7.4, room temperature, O.D405, Lineweaver-Burk, means of triplicate
Method: as §1, §2

[8] = system: CC(=O)Oc1ccc([N+](=O)[O-])cc1; assay: Enzyme kinetics of AlbD-M1 with p-nitrophenyl compounds; settings: other: AlbD-M1, PBS pH 7.4, room temperature, O.D405, Lineweaver-Burk, means of triplicate
Method: as §1, §2

[9] = system: CCCC(=O)Oc1ccc([N+](=O)[O-])cc1; assay: as above; settings: other: AlbD-M1, PBS pH 7.4, room temperature, O.D405, Lineweaver-Burk, means of triplicate
Method: as §1, §2

[10] = system: CCCCC(=O)Oc1ccc([N+](=O)[O-])cc1; assay: as above; settings: other: AlbD-M1, PBS pH 7.4, room temperature, O.D405, Lineweaver-Burk, means of triplicate
Method: as §1, §2

[11] = system: CCCCCC(=O)Oc1ccc([N+](=O)[O-])cc1; assay: as above; settings: other: AlbD-M1, PBS pH 7.4, room temperature, O.D405, Lineweaver-Burk, means of triplicate
Method: as §1, §2

[12] = system: CC(=O)Oc1ccc([N+](=O)[O-])cc1; assay: Enzyme kinetics of AlbD-M2 with p-nitrophenyl compounds; settings: other: AlbD-M2, PBS pH 7.4, room temperature, O.D405, Lineweaver-Burk, means of triplicate
Method: as §1, §2

[13] = system: CCCC(=O)Oc1ccc([N+](=O)[O-])cc1; assay: as above; settings: other: AlbD-M2, PBS pH 7.4, room temperature, O.D405, Lineweaver-Burk, means of triplicate
Method: as §1, §2

[14] = system: CCCCCC(=O)Oc1ccc([N+](=O)[O-])cc1; assay: as above; settings: other: AlbD-M2, PBS pH 7.4, room temperature, O.D405, Lineweaver-Burk, means of triplicate
Method: as §1, §2

Pantoea dispersa AlbD variant AlbD-M2, Glu25Arg (A74G)/Lys27Glu (A79G)/Ser40Gly (A118G), sequence (O07822 entry or part of it Q25R/K27E/S40G): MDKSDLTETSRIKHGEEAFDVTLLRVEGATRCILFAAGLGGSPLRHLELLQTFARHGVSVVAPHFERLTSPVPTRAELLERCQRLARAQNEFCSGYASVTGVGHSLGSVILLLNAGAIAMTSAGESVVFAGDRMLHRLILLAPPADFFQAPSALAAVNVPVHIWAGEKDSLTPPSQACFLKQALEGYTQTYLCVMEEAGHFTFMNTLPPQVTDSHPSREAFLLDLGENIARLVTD
Pantoea dispersa AlbD variant AlbD-M1, Ser40Gly (A118G), FIG. 3, sequence (O07822 entry or part of it S40G): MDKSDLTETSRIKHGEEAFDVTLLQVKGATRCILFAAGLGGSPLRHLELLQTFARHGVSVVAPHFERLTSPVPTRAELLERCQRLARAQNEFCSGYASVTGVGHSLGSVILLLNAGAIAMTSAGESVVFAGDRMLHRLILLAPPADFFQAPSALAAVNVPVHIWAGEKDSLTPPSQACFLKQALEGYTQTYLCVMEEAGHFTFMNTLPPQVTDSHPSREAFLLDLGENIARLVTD
Pantoea dispersa AlbD (albicidin detoxifying enzyme, carboxyl esterase), wild type, sequence (O07822 entry or part of it): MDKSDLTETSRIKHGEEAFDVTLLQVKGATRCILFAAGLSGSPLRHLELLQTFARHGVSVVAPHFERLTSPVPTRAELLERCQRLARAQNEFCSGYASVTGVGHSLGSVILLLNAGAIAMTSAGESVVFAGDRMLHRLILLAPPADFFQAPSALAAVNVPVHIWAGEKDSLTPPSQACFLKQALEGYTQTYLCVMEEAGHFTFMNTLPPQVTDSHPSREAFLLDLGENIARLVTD

Molecule: CC(=O)Oc1ccc([N+](=O)[O-])cc1 [p-nitrophenol acetate, p-nitrophenyl acetate]
- Kcat [1]: 3.8 × 10^−3 S^−1
- Kcat [2]: 9.1 × 10^−2 S^−1
- Kcat [3]: 1.5 × 10^−2 S^−1

Molecule: CCC(=O)Oc1ccc([N+](=O)[O-])cc1 [p-nitrophenol propionate, p-nitrophenyl propionate]
- Kcat [1]: 8.3 × 10^−2 S^−1
- Kcat [2]: 2.7 × 10^−1 S^−1
- Kcat [3]: 1.0 × 10^−1 S^−1

Molecule: CCCC(=O)Oc1ccc([N+](=O)[O-])cc1 [p-nitrophenyl butyrate]
- Kcat [2]: 2.5 × 10^−1 S^−1
- Kcat [3]: 2.8 × 10^−2 S^−1

Molecule: CCCCCC(=O)Oc1ccc([N+](=O)[O-])cc1 [p-nitrophenyl caproate]
- Kcat [2]: 4.2 × 10^−1 S^−1
- Kcat [3]: 1.3 × 10^−1 S^−1

Molecule: CCCCC(=O)Oc1ccc([N+](=O)[O-])cc1 [p-nitrophenyl velerate, p-nitrophenyl valerate]
- Kcat [2]: 8.8 × 10^−1 S^−1

Molecule: Pantoea dispersa AlbD (albicidin detoxifying enzyme, carboxyl esterase), wild type (Pantoea dispersa)
- Km [4]: 68000 µM
- Km [5]: 190 µM
- kcat [5]: 0.1 s⁻¹
- kcat/Km [5]: 526 M⁻¹ s⁻¹
- Km [6]: 1700 µM
- kcat [6]: 0.28 s⁻¹
- kcat/Km [6]: 165 M⁻¹ s⁻¹
- Km [7]: 2500 µM
- kcat [7]: 0.11 s⁻¹
- kcat/Km [7]: 55.6 M⁻¹ s⁻¹

Molecule: Pantoea dispersa AlbD variant AlbD-M1, Ser40Gly (A118G), FIG. 3 (Pantoea dispersa; S40G)
- Km [8]: 94000 µM
- Km [9]: 11 µM
- Km [10]: 400 µM
- Km [11]: 250 µM

Molecule: Pantoea dispersa AlbD variant AlbD-M2, Glu25Arg (A74G)/Lys27Glu (A79G)/Ser40Gly (A118G) (Pantoea dispersa; K27E/Q25R/S40G)
- Km [12]: 13000 µM
- Km [13]: 23 µM
- Km [14]: 66000 µM

Reference: patent US20070207463A1, “Method” (priority 2003, published 2007)
